Measured values: the supplement of paper PMC11136658

System: peptide library, one residue held at a place counted from the Y acceptor
Test: relative phosphorylation of the sub-library (ratio to the mean residue at this position); higher = residue favoured
In short: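 Each value expresses phosphorylation relative to the mean randomized residue. Purified recombinant kinases acted for 90 min in 384-well plates on biotinylated Tyr-centred peptide library mixtures, with one residue fixed at one position from −5 to +5, in the presence of 50 μM ATP with γ-32P-ATP. Signals were read by phosphorimaging after capture on streptavidin membranes, then normalized per position to the sum of the 18 randomized residues (16 in the Ser/Thr-free library) and multiplied by that number.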

ERBB4, construct: aa682-993, human, sequence (Q15303 682-993, looked up): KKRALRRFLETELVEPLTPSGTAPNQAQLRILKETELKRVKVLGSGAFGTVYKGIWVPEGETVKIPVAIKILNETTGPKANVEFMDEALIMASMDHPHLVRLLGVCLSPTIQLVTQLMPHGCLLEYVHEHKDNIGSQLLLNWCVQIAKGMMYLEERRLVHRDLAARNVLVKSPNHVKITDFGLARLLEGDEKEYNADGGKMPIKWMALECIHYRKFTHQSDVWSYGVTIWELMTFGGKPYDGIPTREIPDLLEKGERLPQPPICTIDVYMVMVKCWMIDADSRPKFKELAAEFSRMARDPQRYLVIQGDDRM
FGFR1, construct: aa456-765, human, sequence (P11362 456-765, looked up): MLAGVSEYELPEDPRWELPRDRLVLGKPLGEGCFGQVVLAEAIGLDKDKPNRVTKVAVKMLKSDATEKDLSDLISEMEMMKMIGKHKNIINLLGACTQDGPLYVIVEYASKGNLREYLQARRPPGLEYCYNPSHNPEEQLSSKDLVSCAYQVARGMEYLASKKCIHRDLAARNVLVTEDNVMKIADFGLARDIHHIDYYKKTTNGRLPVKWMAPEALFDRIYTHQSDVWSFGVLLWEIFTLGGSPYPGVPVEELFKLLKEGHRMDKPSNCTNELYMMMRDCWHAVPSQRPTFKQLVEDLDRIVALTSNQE
FES, construct: Full length, human, sequence (P07332 whole entry, looked up): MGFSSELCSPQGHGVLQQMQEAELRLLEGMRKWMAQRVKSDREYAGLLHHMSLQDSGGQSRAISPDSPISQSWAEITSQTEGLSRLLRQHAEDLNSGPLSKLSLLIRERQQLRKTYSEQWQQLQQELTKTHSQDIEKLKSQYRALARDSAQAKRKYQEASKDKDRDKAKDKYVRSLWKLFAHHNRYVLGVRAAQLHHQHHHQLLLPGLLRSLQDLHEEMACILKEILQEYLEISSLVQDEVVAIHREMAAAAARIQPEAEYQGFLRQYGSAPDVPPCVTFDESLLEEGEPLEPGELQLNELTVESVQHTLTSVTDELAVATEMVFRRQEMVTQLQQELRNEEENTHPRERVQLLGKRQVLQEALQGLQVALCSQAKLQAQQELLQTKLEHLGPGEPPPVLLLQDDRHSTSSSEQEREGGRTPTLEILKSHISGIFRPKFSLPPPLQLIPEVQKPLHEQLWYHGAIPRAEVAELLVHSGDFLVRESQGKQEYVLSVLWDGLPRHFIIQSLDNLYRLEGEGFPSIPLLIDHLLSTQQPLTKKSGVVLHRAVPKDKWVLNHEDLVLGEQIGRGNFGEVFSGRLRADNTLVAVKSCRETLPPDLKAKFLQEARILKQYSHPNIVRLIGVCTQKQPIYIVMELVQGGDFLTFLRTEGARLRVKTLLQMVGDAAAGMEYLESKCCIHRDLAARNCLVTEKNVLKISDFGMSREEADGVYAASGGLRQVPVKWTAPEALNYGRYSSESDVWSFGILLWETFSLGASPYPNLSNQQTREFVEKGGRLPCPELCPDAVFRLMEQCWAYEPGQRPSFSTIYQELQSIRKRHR

ERBB4, construct: aa682-993, human (from UniProt Q15303)
relative phosphorylation
Settings	at +1	at +2	at +3	at +4	at +5	at -1	at -2	at -3	at -4	at -5
A fixed	1	0.674	0.487	0.87	1.07	0.611	1.41	0.86	1.34	1.06
D fixed	0.859	1.43	0.443	0.917	0.946	2.49	1.76	1.84	1.36	1.25
E fixed	1.87	2.03	0.446	1.07	0.98	2.43	2.11	2.33	1.62	1.1
F fixed	1.07	1.32	2.24	1.18	1.25	0.62	0.599	0.925	1.12	1.08
G fixed	0.413	0.375	0.427	1.13	1.14	0.519	1.04	0.941	1.09	0.998
H fixed	0.893	0.725	0.757	0.987	0.865	0.81	0.877	0.81	0.757	1
I fixed	1.93	1.14	2.4	0.846	0.858	1.96	0.757	0.647	0.789	0.823
K fixed	0.252	0.401	0.211	0.647	0.903	0.297	0.514	0.691	0.733	0.913
L fixed	1.03	0.97	1.97	0.758	1.01	1.21	0.826	0.859	0.931	0.936
M fixed	1.12	0.975	1.43	0.922	0.959	0.876	0.57	0.842	0.757	0.892
N fixed	0.453	0.909	0.439	0.635	0.757	1.24	1.08	1.37	0.863	1.16
P fixed	0.345	0.691	0.616	1.28	1.49	0.503	1.22	0.964	1.14	0.907
Q fixed	1.09	0.79	0.475	0.838	0.757	0.955	1.12	0.962	1.45	1.23
R fixed	0.318	0.58	0.328	0.769	0.864	0.333	0.508	0.602	0.65	0.897
S fixed	0.678	0.839	0.6	1.06	1.13	0.506	1.03	0.981	0.882	0.903
T fixed	1.1	1.05	0.563	0.87	1.02	1.01	0.872	0.924	0.537	0.79
V fixed	2.46	1.2	1.46	0.93	0.911	1.11	1.16	0.697	0.836	0.815
W fixed	1.11	1.9	2.71	2.28	1.09	0.522	0.541	0.759	1.13	1.25
pThr fixed	2.75	2.29	0.524	1.01	1.01	3.76	2.43	2.64	1.41	1.21
pTyr fixed	15.4	5.38	1.12	1.4	1.13	2.48	2.59	2.35	1.62	1.31

FES, construct: Full length, human (from UniProt P07332)
relative phosphorylation
Settings	at +1	at +2	at +3	at +4	at +5	at -1	at -2	at -3	at -4	at -5
A fixed	1.45	0.535	0.428	0.817	1.18	0.518	1.05	0.86	1.26	1
D fixed	0.789	0.715	0.235	0.622	0.47	0.77	1.01	1.52	1.16	0.941
E fixed	2.65	0.794	0.289	1	0.374	0.567	1.27	1.89	1.27	0.9
F fixed	0.872	1.58	1.32	1.07	1.71	1.3	0.851	1.44	1.13	1.14
G fixed	0.754	0.372	0.35	1.01	0.809	0.274	1.26	0.985	1.4	1.09
H fixed	0.471	0.425	0.752	0.957	1.24	0.718	0.917	0.826	0.74	0.979
I fixed	1.07	1.3	3.25	1.25	1.23	4.02	1.02	0.823	1.1	1.07
K fixed	0.208	0.294	0.21	0.592	0.394	0.273	0.62	0.44	0.615	0.766
L fixed	0.854	1.56	1.45	0.795	1.35	2.41	1.24	0.866	1.1	1.09
M fixed	1.82	1.36	2.19	1.68	1.52	1.05	0.917	1.18	1.19	1.24
N fixed	0.332	0.848	0.273	0.57	0.593	0.618	0.982	1.02	0.762	1.14
P fixed	0.332	0.643	0.361	0.845	1.44	0.599	1.21	0.917	1.01	0.883
Q fixed	0.95	0.552	0.373	0.858	0.669	0.412	1.1	0.702	1.13	1.18
R fixed	0.219	0.379	0.252	0.946	0.536	0.228	0.657	0.536	0.62	0.854
S fixed	1.29	0.819	0.482	0.923	0.78	0.432	0.953	0.924	0.733	0.777
T fixed	1.09	0.867	0.646	0.831	1.03	0.784	0.916	0.806	0.664	0.821
V fixed	1.88	1.26	2.52	1.1	1.27	2.19	1.08	0.942	0.984	1.05
W fixed	0.981	3.69	2.61	2.14	1.4	0.835	0.948	1.32	1.12	1.08
pThr fixed	3.64	1.35	0.346	0.649	0.307	1.53	1.21	1.65	0.946	0.879
pTyr fixed	3.48	1.27	0.712	1.14	0.357	9.09	2.21	2.25	1.83	1.55

FGFR1, construct: aa456-765, human (from UniProt P11362)
relative phosphorylation
Settings	at +1	at +2	at +3	at +4	at +5	at -1	at -2	at -3	at -4	at -5
A fixed	1.01	0.593	0.546	0.853	0.912	0.836	0.925	0.939	1.11	1.05
D fixed	0.332	0.728	0.463	0.791	1.17	2.09	1.05	1.22	1.02	1.05
E fixed	0.68	1.06	0.407	0.769	1.06	1.29	1.17	1.23	1.09	0.859
F fixed	1.81	1.68	1.57	1.12	0.897	1.06	0.673	0.814	0.905	0.897
G fixed	0.332	0.406	0.514	1.27	1.22	0.557	1.19	1.08	1.22	1.12
H fixed	1.62	0.924	0.968	1.06	0.867	1.17	1.17	1.03	1.05	1.05
I fixed	1.66	1.14	2.43	1.13	0.744	1.3	0.907	0.816	0.823	0.921
K fixed	0.379	0.581	0.302	0.866	0.903	0.461	1.03	1.01	1.02	1.12
L fixed	0.938	1.35	1.79	1.13	0.737	0.921	0.829	0.69	0.769	0.891
M fixed	1.07	1.07	1.65	0.981	0.822	0.758	0.826	0.917	0.803	0.95
N fixed	0.428	0.954	0.415	0.758	0.999	1.35	1.25	1.34	1.02	1.24
P fixed	1.13	0.702	0.621	1.3	1.72	0.954	0.919	0.962	1.22	0.954
Q fixed	0.794	0.963	0.796	0.955	0.999	1.09	1.24	1.05	1.2	1.19
R fixed	0.494	0.669	0.494	0.914	1.05	0.354	0.969	0.95	1.04	1.29
S fixed	0.888	0.818	0.6	1.01	1.14	0.678	1.2	1.19	0.918	0.988
T fixed	0.98	0.762	0.774	0.836	1.02	0.77	0.995	0.916	0.768	0.741
V fixed	1.67	1.09	1.78	1	0.84	1.21	0.9	0.84	0.789	0.753
W fixed	1.78	2.51	1.87	1.26	0.908	1.15	0.748	1.01	1.23	0.949
pThr fixed	0.496	0.942	0.298	0.559	1.03	0.884	0.846	0.938	0.771	0.696
pTyr fixed	2.43	2.39	0.408	0.758	0.987	2.02	1.13	1.06	1.07	0.764
